Source: patent publication US20170349667A1

Target: human c-Met on cells (MKN-45, A549, HPAF, BxPC3) (human) (UniProt P08581)
Assay: cell-based or functional assay

Chain of human c-Met on cells (MKN-45, A549, HPAF, BxPC3) (human) (P08581 25-1390): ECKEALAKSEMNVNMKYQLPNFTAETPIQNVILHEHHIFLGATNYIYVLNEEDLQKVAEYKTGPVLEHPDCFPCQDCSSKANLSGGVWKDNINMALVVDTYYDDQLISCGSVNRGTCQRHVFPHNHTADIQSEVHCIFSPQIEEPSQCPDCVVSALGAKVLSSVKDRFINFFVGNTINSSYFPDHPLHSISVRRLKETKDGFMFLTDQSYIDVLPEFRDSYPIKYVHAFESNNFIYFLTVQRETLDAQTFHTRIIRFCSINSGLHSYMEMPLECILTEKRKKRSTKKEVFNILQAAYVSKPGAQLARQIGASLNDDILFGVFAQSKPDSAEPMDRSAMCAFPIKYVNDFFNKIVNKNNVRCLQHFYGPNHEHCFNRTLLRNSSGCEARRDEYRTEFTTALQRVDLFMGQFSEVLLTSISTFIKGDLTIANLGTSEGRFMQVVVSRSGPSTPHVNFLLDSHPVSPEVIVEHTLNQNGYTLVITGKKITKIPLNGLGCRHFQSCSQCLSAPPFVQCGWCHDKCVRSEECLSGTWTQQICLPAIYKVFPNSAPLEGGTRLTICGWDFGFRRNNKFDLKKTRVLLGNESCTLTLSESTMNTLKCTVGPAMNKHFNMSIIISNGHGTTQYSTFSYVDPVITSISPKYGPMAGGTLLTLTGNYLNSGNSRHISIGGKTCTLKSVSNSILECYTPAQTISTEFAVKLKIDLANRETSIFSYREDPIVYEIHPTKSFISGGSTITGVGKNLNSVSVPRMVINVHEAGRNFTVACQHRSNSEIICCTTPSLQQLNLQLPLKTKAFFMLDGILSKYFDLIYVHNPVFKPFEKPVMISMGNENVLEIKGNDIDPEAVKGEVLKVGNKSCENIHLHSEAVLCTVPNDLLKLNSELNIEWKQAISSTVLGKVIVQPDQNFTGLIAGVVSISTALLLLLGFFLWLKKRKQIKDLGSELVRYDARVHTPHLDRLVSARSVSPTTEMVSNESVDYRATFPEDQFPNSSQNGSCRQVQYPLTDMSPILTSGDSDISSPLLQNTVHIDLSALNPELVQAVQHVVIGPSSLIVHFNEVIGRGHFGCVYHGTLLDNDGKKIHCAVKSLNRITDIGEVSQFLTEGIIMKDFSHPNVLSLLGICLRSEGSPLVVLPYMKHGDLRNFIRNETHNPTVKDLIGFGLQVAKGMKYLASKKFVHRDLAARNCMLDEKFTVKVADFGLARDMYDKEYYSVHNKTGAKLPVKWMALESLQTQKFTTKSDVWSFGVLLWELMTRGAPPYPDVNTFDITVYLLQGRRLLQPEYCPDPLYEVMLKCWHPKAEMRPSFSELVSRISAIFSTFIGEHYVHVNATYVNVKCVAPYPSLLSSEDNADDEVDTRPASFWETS

down-regulation of total c-Met on the surface of MKN-45 cells: 50 to 60%
Substance: murine 5D5 antibody
